This data set concerns the molecule itself. Kind of data set: SEC + other: dynamic light scattering + other: transmission electron microscopy.

Results on one protein are retold here after publication PMC3246388 (Biomacromolecules, 2011).

B1: bacteriophage Qβ coat protein, assembled as the recombinant virus-like particle (natural protein)
chain: MAKLETVTLGNIGKDGKQTLVLNPRGVNPTNGVASLSQAGAVPALEKRVTVSVSQPSRNRKNYKVQVKIQNPTACTANGSCDPSVTRQAYADVTFSFTQYSTDEERAFVRTELAALLASPLLIDAIDQLNPAY
As to B1, the binding result was “binds”.
